Reference: US20160024208A1

Legend:
[1] = molecular target: full-length human Nav1.7 fused at its N-terminus to GFP, expressed in HEK293 cells (human) (UniProt Q15858); test: cell-based or functional assay
[2] = molecular target: full-length human Nav1.7 fused at its N-terminus to GFP, expressed in HEK293 cells (human) (UniProt Q15858); test: flow cytometry; % stained hNav1.7-GFP-HEK293 minus parental HEK293
[3] = molecular target: full-length human Nav1.7 fused at its N-terminus to GFP, expressed in HEK293 cells (human) (UniProt Q15858); test: flow cytometry on Nav1.7-GFP-HEK293, antibody 3.3 nM preincubated with 3.3 uM EC 3-1 peptide as competitor
[4] = molecular target: full-length human Nav1.7 fused at its N-terminus to GFP, expressed in HEK293 cells (human) (UniProt Q15858); test: flow cytometry on Nav1.7-GFP-HEK293, antibody 3.3 nM
[5] = molecular target: N-term Biotin Nav1.7 (3-3) peptide, mouse (mouse); test: ELISA on coated peptide

| Binder | Current blocking (Average % inhibition), IonWorks Quattro, 223 nM antibody [1] [%] | % Binding Nav1.7 [2] [%] | % Binding Nav1.7 + 1000x Peptide (Competition Binding) [3] [%] | % Binding Nav1.7 (Stable Line) [4] [%] | OD450 [5] [od] |
| --- | --- | --- | --- | --- | --- |
| H4H382B (antibody, V domains shown) VH: EVQLVQSGGGVVQPGRSLRLSCEASGFTFSSYGMHWVRQAPGKGLEWVAVISYDGSNKHYTDSVKGRFTISRDNSKNTLYLQMNSLRAEDTAVYFCAQSRGYSYGLGYWGQGTLVTVSS VL: DIQMTQSPDSLAVSLGERATINCKSSQSVLSSSNNENYLVWYQQKPGQPPKLLIYWASTREPGVPDRFSGGGSGTDFTLTISSLQAEDVAVYYCQQYHSIPYTFGQGTKVEIKR | -6 | 13 | – | – | – |
| H4H441B (antibody, V domains shown) VH: QVQLQQWGAGLLKPSETLSLTCAVYGGSFSGHYWTWIRQPPGKGLEWIGEINHRGNTNYNPSLKSRATISVDTSKNQFSLKLSSVTAADTAVYYCAREGSLAARLWFFDLWGRDTPVTVSS VL: DIQMTQSPSSLSASVGDRGTVTCRASQNIRTYLNWYQQKPGKAPKLLIYAASSLQSGVPSRFSGSGSGTDFTLTISSLQPEDFATYYCQQSYGTPYTFGQGTKVEIKR | 81 | – | – | – | – |
| H4H448B (antibody, V domains shown) VH: EVQLVQSGGGLVQPGRSLRLSCAASGFTFDDYAMHWVRQAPGKGLEWVSGISWNSGSIGYADSVKGRFTISRDNAKNSLYLQMNSLRAEDTALYYCAKDIEYYDILTGYYSYYIMDVWGQGTTVTVSS VL: DIRMTQSPSSLSASVGDRGTITCRASQNINSYLNWYQLKPGKAPKLLIFAASSLQSGVPSRFSGSGSGTDFTLTISSLQPEDFATYYCQQSYSSPFTFGQGTKVEIKR | – | 9.2 | 5.8 | 9.2 | – |
| H4H443B (antibody, V domains shown) VH: QVQLVESGGGLVQPGRSLRLSCAASGFTFDDYAMHWVRQVPGKGLEWVSGINWNSGSIGYADSVKGRFTISRDNAKNSLFLQMNSLRAEDTALYYCAKDIEYYDILTGYYSYYIMDVWGQGTTVTVSS VL: DIQMTQSPSFLSASVGDRVTITCWASQGISSYLAWYQQKPGKAPKLLIYASSTLQSGVPSRFSGSGSGTEFTLTISSLQPEDFATYYCQQFNSYPPTFGQGTKVEIKR | – | 10.1 | 5.1 | 10.1 | – |
| H4H471B (antibody, V domains shown) VH: EVQLVESGGGLVKPGGSLRLSCAASGVTFSDYYMTWIRQAPGKGLEWVSYISTDGRTIYYADSVKGRFTISRDNAKNSLYLQMNNLRAEDTAVYYCARGVDSDDYEDFYSYYDMDVWGQGTTVTVSS VL: DIQMTQSPSSLSASVGDRVTITCRASQGISNYLAWFQQKPGKAPKSLIYAASSLQGGVPSRFSGSGSGTDFTLTISSLQPEDFATYYCQQYNSYPLTFGGGTKVEIKR | – | – | – | – | < 0.2 |
